For orientation: Kd means the constant that tells how readily two partners part at equilibrium. In general, koff refers to the rate constant with which the complex falls apart. The term kon denotes a measure of how fast the partners come together.

This note sets out measurements from patent publication US20140357844A1 (RINAT NEUROSCIENCE, published 2014).

The target of assay [1] is T1, cynomolgus monkey Trop-2-hFc (cynomolgus monkey, UniProt A0A2K5UE71 27-274).
T1 construct: also called cynoTrop-2; not shown: human Fc
T1 sequence: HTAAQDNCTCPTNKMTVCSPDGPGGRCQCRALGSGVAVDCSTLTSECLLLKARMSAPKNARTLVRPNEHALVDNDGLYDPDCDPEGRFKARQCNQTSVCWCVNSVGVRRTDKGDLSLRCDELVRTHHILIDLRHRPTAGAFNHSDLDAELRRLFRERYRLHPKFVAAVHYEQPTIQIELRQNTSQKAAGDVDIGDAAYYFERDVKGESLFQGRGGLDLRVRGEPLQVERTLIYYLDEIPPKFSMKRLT
Kind of assay: SPR (Biacore T200), cynomolgus Trop-2-hFc captured by anti-human Fc, Fab as analyte.

Assay [2] concerns the target T2, monovalent human Trop2-ECD antigen (human, UniProt P09758 27-274).
T2 construct: also called human Trop2-ECD (Extracellular Domain)
T2 sequence: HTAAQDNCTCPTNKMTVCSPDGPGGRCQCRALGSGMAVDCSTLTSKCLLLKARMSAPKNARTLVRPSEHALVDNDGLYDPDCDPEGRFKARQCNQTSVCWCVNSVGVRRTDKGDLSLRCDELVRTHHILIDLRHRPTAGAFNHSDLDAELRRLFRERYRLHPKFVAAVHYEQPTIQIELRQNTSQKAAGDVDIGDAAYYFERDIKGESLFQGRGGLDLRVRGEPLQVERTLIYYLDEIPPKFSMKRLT
Kind of assay: SPR (ProteOn XPR36), amine-coupled Fab, monovalent human Trop2-ECD as analyte, 25 C.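 Also: GLC sensor chip, 3 min association then 15 min buffer dissociation, kinetics fit with a 1:1 Langmuir model, buffer of 10 mM sodium phosphate with 150 mM NaCl and 0.05% Tween-20 at pH 7.4.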
Experimental: Analysis of Fab/human Trop2-ECD (Extracellular Domain) interactions was performed using a Bio-Rad Proteon XPR36Surface Plasmon Resonance (SPR) biosensor (Bio-Rad, Hercules, Calif.) equipped with a GLC sensor chip. The assay temperature was 25° C., and the assay buffer was 10 mM Sodium Phosphate, 150 mM NaCl, 0.05% Tween-20, pH 7.4. […] In each analysis cycle, monovalent human Trop2-ECD antigen was flowed at 30 μL/min over the immobilized Fabs for 3 minutes followed by a buffer wash for 15 minutes to monitor dissociation of the Fab/Trop2 complex. The sensor surface was regenerated between analysis cycles, using three 18-second injections of a 2:1 mixture (by volume) of Pierce IgG Elution buffer:4 M NaCl (Pierce, Rockford, Ill.). […] The resulting data were fit to a 1:1 Langmuir binding model using the Proteon evaluation software.

Another assay has as its target T3, human Trop-2-hFc (human, UniProt P09758 27-274).
T3 construct: also called huTrop-2; human Trop-2 human Fc fusion protein; not shown: human Fc
T3 sequence: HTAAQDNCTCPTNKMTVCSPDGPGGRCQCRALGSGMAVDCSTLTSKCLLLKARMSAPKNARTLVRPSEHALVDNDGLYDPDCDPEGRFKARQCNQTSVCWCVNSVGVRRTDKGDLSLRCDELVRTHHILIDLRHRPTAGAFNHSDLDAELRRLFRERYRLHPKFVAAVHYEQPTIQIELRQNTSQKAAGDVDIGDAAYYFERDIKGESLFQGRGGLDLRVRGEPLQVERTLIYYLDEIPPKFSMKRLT
Kind of assay: SPR (Biacore T200), human Trop-2-hFc captured by anti-human Fc, Fab as analyte. On the technique in general: SPR reads the build-up and loss of mass on a sensor chip optically.

For assay [3], the target named is T4, Trop-2 on Trop-2 expressing tumor cells (human, UniProt P09758 27-323).
T4 construct: Endogenous Trop-2 of human tumour cell lines; also called Trop-2 positive tumor cells; A431 (Trop-2+++)
T4 sequence: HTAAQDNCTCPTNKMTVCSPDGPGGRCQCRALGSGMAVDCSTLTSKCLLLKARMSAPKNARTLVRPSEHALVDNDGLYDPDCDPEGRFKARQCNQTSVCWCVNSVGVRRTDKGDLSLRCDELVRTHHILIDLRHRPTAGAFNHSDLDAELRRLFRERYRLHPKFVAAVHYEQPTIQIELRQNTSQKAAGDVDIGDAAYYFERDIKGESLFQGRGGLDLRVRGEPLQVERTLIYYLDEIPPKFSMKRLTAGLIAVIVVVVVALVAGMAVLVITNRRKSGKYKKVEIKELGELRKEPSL
Kind of assay: flow cytometry, A431 cells (Trop-2+++), 0.5 ug antibody per 200,000 cells. In general terms: A flow cytometer gives signals particle by particle.
Experimental: For A431 cell staining, 200,000 cells were incubated with 0.5 ug antibody in 100 uL binding buffer (PBS (Phosphate Buffered Saline)+0.5% BSA (Bovine Serum Albumin)), followed by incubation with Dylight488-conjugated goat anti-human (Fab′)-2-specific secondary antibody from Jackson immunoresearch Laboratories (West Grove, Pa.).

Assay [4] has as its target T4, Trop-2 on Trop-2 expressing tumor cells. The assay can be described thus: flow cytometry, Colo205 cells (Trop-2+), 1 ug antibody per 300,000 cells.

Text for human Trop-2-hFc: The human Trop-2-hFc or cynomolgus monkey Trop-2-hFc proteins were captured on the CM5 EDA chip 37 sensor surface coupled with anti-human Fc.

B1: chimeric 7E6 recombinant Fab fragment (Fab, V domains shown)
VH: QVQLKESGPGLVAPSQSLSITCTVSGFSLTSYGVHWVRQPPGKGLEWLGVIWTGGSTDYNSALMSRLSINKDNSKSQVFLKMNSLQTDDTAMYYCARDGDYDRYTMDYWGQGTSVTVSS
VL: DIVLTQSPASLAVSLGQRATISCRASKSVSTSGYSYMHWYQQKPGQPPKLLIYLASNLESGVPARFSGSGSGTDFTLNIHPVEEEDAATYYCQHSRELPYTFGGGTKLEIK
notes: Recombinant chimeric Fab; also called mouse7E6
B1 showed a Kd in assay [1] of 16.5 nM.

B2: h7E6_SVG Fab (Fab, V domains shown)
VH: QVQLQESGPGLVKPSETLSLTCTVSGGSISSYGVHWIRQPPGKGLEWIGVIWTSGVTDYNSALMGRVTISVDTSKNQFSLKLSSVTAADTAVYYCARDGDYDRYTMDYWGQGTLVTVSS
VL: DIVMTQSPDSLAVSLGERATINCRASKSVSTSGYSYMHWYQQKPGQPPKLLIYLASNLESGVPDRFSGSGSGTDFTLTISSLQAEDVAVYYCQHSRELPYTFGQGTKLEIK
notes: also called DG (h7E6_SVG)
In assay [2], B2 displayed a Kd of 4.1 nM, a koff of 0.00069 s⁻¹, a kon of 170000 M⁻¹ s⁻¹ and a t1/2 of 17 min. For the same molecule, in assay [1], the Kd came out at 7 nM, the koff was 0.00189 s⁻¹ and the kon stood at 265000 M⁻¹ s⁻¹. In the assay with human Trop-2-hFc, this molecule showed a Kd of 4.46 nM, a koff of 0.000435 s⁻¹ and a kon of 97600 M⁻¹ s⁻¹.

B3: h7E6_WT antibody (human IgG1) (antibody, V domains shown)
VH: QVQLQESGPGLVKPSETLSLTCTVSGGSISSYGVHWIRQPPGKGLEWIGVIWTGGSTDYNSALMSRVTISVDTSKNQFSLKLSSVTAADTAVYYCARDGDYDRYTMDYWGQGTLVTVSS
VL: DIVMTQSPDSLAVSLGERATINCRASKSVSTSGYSYMHWYQQKPGQPPKLLIYLASNLESGVPDRFSGSGSGTDFTLTISSLQAEDVAVYYCQHSRELPYTFGQGTKLEIK
notes: Human IgG1
Take B3: the “% positive” value in assay [3] turned out to be 94.8%; in assay [4], 99%. For the same molecule, the MFI stood at 102000 in assay [3] and 1760 in assay [4].

B4: h7E6-WT recombinant Fab fragment (Fab, V domains shown)
VH: QVQLQESGPGLVKPSETLSLTCTVSGGSISSYGVHWIRQPPGKGLEWIGVIWTGGSTDYNSALMSRVTISVDTSKNQFSLKLSSVTAADTAVYYCARDGDYDRYTMDYWGQGTLVTVSS
VL: DIVMTQSPDSLAVSLGERATINCRASKSVSTSGYSYMHWYQQKPGQPPKLLIYLASNLESGVPDRFSGSGSGTDFTLTISSLQAEDVAVYYCQHSRELPYTFGQGTKLEIK
notes: Recombinant Fab
In assay [1], B4 returned a Kd of 44 nM, a dissociation rate constant (koff) of 0.00635 s⁻¹ and a kon of 144000 M⁻¹ s⁻¹. Besides, in the assay with human Trop-2-hFc, binding was characterised by a dissociation constant (Kd) of 21.1 nM, the koff amounted to 0.00294 s⁻¹ and the kon stood at 139000 M⁻¹ s⁻¹.

B5: h7E6_L antibody (human IgG1) (antibody, V domains shown)
VH: QVQLQESGPGLVKPSETLSLTCTVSGGSISSYGVHWIRQPPGKGLEWIGVIWTGGSTDYNSALMSRVTISVDTSKNQFSLKLSSVTAADTAVYYCARDGDYDRYTMDYWGQGTLVTVSS
VL: DIVMTQSPDSLAVSLGERATINCRASKSVSTSLYSYMHWYQQKPGQPPKLLIYLASNLESGVPDRFSGSGSGTDFTLTISSLQAEDVAVYYCQHSRELPYTFGQGTKLEIK
notes: Human IgG1
Turning to B5, the “% positive” value was found to be 95.1% in assay [3] and 100% in assay [4]. Moreover, the MFI in assay [3] worked out at 110000; in assay [4] it was 2470.

B6: h7E6_SVGL recombinant Fab fragment (Fab, V domains shown)
VH: QVQLQESGPGLVKPSETLSLTCTVSGGSISSYGVHWIRQPPGKGLEWIGVIWTSGVTDYNSALMGRVTISVDTSKNQFSLKLSSVTAADTAVYYCARDGDYDRYTMDYWGQGTLVTVSS
VL: DIVMTQSPDSLAVSLGERATINCRASKSVSTSLYSYMHWYQQKPGQPPKLLIYLASNLESGVPDRFSGSGSGTDFTLTISSLQAEDVAVYYCQHSRELPYTFGQGTKLEIK
notes: Recombinant Fab
As to B6, in assay [1], the Kd is 0.57 nM, the koff is 7.42e-05 s⁻¹ and the kon worked out at 130000 M⁻¹ s⁻¹. Also, in the assay with human Trop-2-hFc, the Kd came out at 0.25 nM, the koff was determined as 3.27e-05 s⁻¹ and the on-rate constant (kon) came to 131000 M⁻¹ s⁻¹.

B7: h7E6_L recombinant Fab fragment (Fab, V domains shown)
VH: QVQLQESGPGLVKPSETLSLTCTVSGGSISSYGVHWIRQPPGKGLEWIGVIWTGGSTDYNSALMSRVTISVDTSKNQFSLKLSSVTAADTAVYYCARDGDYDRYTMDYWGQGTLVTVSS
VL: DIVMTQSPDSLAVSLGERATINCRASKSVSTSLYSYMHWYQQKPGQPPKLLIYLASNLESGVPDRFSGSGSGTDFTLTISSLQAEDVAVYYCQHSRELPYTFGQGTKLEIK
notes: Recombinant Fab
In assay [1], B7 yielded a Kd of 2.66 nM, a koff of 0.000335 s⁻¹ and a kon of 126000 M⁻¹ s⁻¹. In the assay with human Trop-2-hFc, this molecule registered a Kd of 1.15 nM, a koff of 0.00015 s⁻¹ and a kon of 130000 M⁻¹ s⁻¹.

B8: h7E6_SVGL antibody (human IgG1) (antibody, V domains shown)
VH: QVQLQESGPGLVKPSETLSLTCTVSGGSISSYGVHWIRQPPGKGLEWIGVIWTSGVTDYNSALMGRVTISVDTSKNQFSLKLSSVTAADTAVYYCARDGDYDRYTMDYWGQGTLVTVSS
VL: DIVMTQSPDSLAVSLGERATINCRASKSVSTSLYSYMHWYQQKPGQPPKLLIYLASNLESGVPDRFSGSGSGTDFTLTISSLQAEDVAVYYCQHSRELPYTFGQGTKLEIK
notes: Human IgG1
With B8, the “% positive” value in assay [3] was determined as 93.1%; in assay [4], 100%. The MFI in assay [3] is 107000; in assay [4], 2420.

B9: h7E6_N antibody (human IgG1) (antibody, V domains shown)
VH: QVQLQESGPGLVKPSETLSLTCTVSGGSISSYGVHWIRQPPGKGLEWIGVIWTGGSTDYNSALMSRVTISVDTSKNQFSLKLSSVTAADTAVYYCARDGDYDRYTMDYWGQGTLVTVSS
VL: DIVMTQSPDSLAVSLGERATINCRASKSVSTSNYSYMHWYQQKPGQPPKLLIYLASNLESGVPDRFSGSGSGTDFTLTISSLQAEDVAVYYCQHSRELPYTFGQGTKLEIK
notes: Human IgG1
Take B9: in assay [3], the “% positive” value was 98.6% and the MFI was 149000. For the same molecule, in assay [4], the “% positive” value stood at 100% and the MFI was 2700.

B10: h7E6_SVGN antibody (human IgG1) (antibody, V domains shown)
VH: QVQLQESGPGLVKPSETLSLTCTVSGGSISSYGVHWIRQPPGKGLEWIGVIWTSGVTDYNSALMGRVTISVDTSKNQFSLKLSSVTAADTAVYYCARDGDYDRYTMDYWGQGTLVTVSS
VL: DIVMTQSPDSLAVSLGERATINCRASKSVSTSNYSYMHWYQQKPGQPPKLLIYLASNLESGVPDRFSGSGSGTDFTLTISSLQAEDVAVYYCQHSRELPYTFGQGTKLEIK
notes: Human IgG1
For B10, the “% positive” value in assay [3] is 98.1%; in assay [4] it was 100%. Moreover, the MFI in assay [3] is 128000; in assay [4], 2730.

B11: h7E6_SVG antibody (human IgG1) (antibody, V domains shown)
VH: QVQLQESGPGLVKPSETLSLTCTVSGGSISSYGVHWIRQPPGKGLEWIGVIWTSGVTDYNSALMGRVTISVDTSKNQFSLKLSSVTAADTAVYYCARDGDYDRYTMDYWGQGTLVTVSS
VL: DIVMTQSPDSLAVSLGERATINCRASKSVSTSGYSYMHWYQQKPGQPPKLLIYLASNLESGVPDRFSGSGSGTDFTLTISSLQAEDVAVYYCQHSRELPYTFGQGTKLEIK
For the molecule B11, in assay [3], the “% positive” value was found to be 96.7% and the MFI came to 121000. In assay [4], the “% positive” value was 100% and the MFI came out at 2420.
